In patent publication US20220259318A1 (Hoffmann-La Roche, published 2022):
Numbering of substitutions follows the chain as printed. Values joined by “and” are separate entries in the source; they are usually repeats but may differ in a detail not shown here. Identical values can stand only once.

B1: 5F11_P1AE5741 (antibody, V domains shown)
VH: EVQLVESGGGVVQPGRSLRLSCAASGFSFSNYGMAWVRQAPGKGLEWVASISTGGGNTYYRDSVKGRFTISRDNAKNTLYLQMNSLRAEDTAVYYCTRHDRGGLYWGQGTMVTVSS
VL: DIVMTQSPLSLPVTPGEPASISCRSSKSLLHSNGITYVYWYLQKPGQSPQLLIYRMSNRASGVPDRFSGSGSGTDFTLKISRVEAEDVGVYHCGQLLENPYTFGQGTKLEIK
notes: Humanized 5F11 IgG; PGLALA Fc implied by the CAR-J assay; also called 5F11_VH1b + 5F11_VL2a
B2: P1AE5763 (antibody, V domains shown)
VH: B1 VH with V11L, R16G, R61A
VL: DIVMTQSPDSLAVSLGERATINCKSSKSLLHSNGITYVYWYQQKPGQPPKLLIYRMSNLASGVPDRFSGSGSGTDFTLTISSLQAEDVAVYHCGQLLENPYTFGQGTKLEIK
notes: Humanized 5F11 IgG; PGLALA Fc implied by the CAR-J assay; also called 5F11_VH2d + 5F11_VL2b
B3: P1AE5744 (antibody, V domains shown)
VH: B1 VH with E1Q, R61A, A75S
VL: B1 VL with L51V, R59L
notes: Humanized 5F11 IgG; PGLALA Fc implied by the CAR-J assay; also called 5F11_VH1c + 5F11_VL1a
B4: 5F11_P1AE5745 (antibody, V domains shown)
VH: B1 VH with E1Q, R61A, A75S
VL: B1 VL with Q47K, L51V, R59L
notes: Humanized 5F11 IgG; PGLALA Fc implied by the CAR-J assay; also called 5F11_VH1c + 5F11_VL1b
B5: 5E11_P1AE5723 (antibody, V domains shown)
VH: EVQLLESGGGLVQPGGSLRLSCAASGFTFSKYAMAWVRQAPGKGLEWVASISTGGVNTYYADSVKGRFTISRDNSKNTLYLQMNSLRAEDTAVYYCATHTGDYFDYWGQGTMVTVSS
VL: EIVLTQSPGTLSLSPGERATLSCRASQSVSISGINLMNWYQQKPGQQPKLLIYHASILASGIPDRFSGSGSGTDFTLTISRLEPEDFAVYYCQQTRESPLTFGQGTRLEIK
notes: Humanized 5E11 IgG; PGLALA Fc implied by the CAR-J assay; also called 5E11_VH1c + 5E11_VL2b
B6: P1AE5731 (antibody, V domains shown)
VH: B5 VH with V2L, S75A
VL: DIQMTQSPSSLSASVGDRVTITCRASQSVSISGINLMNWYQQKPGQQPKLLIYHASILASGVPSRFSGSGSGTDFTLTISSLQPEDFATYYCQQTRESPLTFGQGTRLEIK
notes: Humanized 5E11 IgG; PGLALA Fc implied by the CAR-J assay; also called 5E11_VH1d + 5E11_VL3b
B7: P1AE5730 (antibody, V domains shown)
VH: B5 VH with V2L, S75A
VL: B6 VL with Q46K
notes: Humanized 5E11 IgG; PGLALA Fc implied by the CAR-J assay; also called 5E11_VH1d + 5E11_VL3a
B8: P1AE5718 (antibody, V domains shown)
VH: B5 VH with V2L, A61R, G66A, S75A
VL: B6 VL with Q46K
notes: Humanized 5E11 IgG; PGLALA Fc implied by the CAR-J assay; also called 5E11_VH1b + 5E11_VL3a
B9: P1AE5712 (antibody, V domains shown)
VH: B5 VH with A61R, G66A
VL: B6 VL with Q46K
notes: Humanized 5E11 IgG; PGLALA Fc implied by the CAR-J assay; also called 5E11_VH1a + 5E11_VL3a
B10: P1AE5719 (antibody, V domains shown)
VH: B5 VH with V2L, A61R, G66A, S75A
VL: B6 VL
notes: Humanized 5E11 IgG; PGLALA Fc implied by the CAR-J assay; also called 5E11_VH1b + 5E11_VL3b
B11: P1AE5725 (antibody, V domains shown)
VH: B5 VH
VL: B6 VL
notes: Humanized 5E11 IgG; PGLALA Fc implied by the CAR-J assay; also called 5E11_VH1c + 5E11_VL3b
B12: P1AE5724 (antibody, V domains shown)
VH: B5 VH
VL: B6 VL with Q46K
notes: Humanized 5E11 IgG; PGLALA Fc implied by the CAR-J assay; also called 5E11_VH1c + 5E11_VL3a
B13: 5E11_P1AE5728 (antibody, V domains shown)
VH: B5 VH with V2L, S75A
VL: B5 VL with K49R
notes: Humanized 5E11 IgG; PGLALA Fc implied by the CAR-J assay; also called 5E11_VH1d + 5E11_VL2a
B14: P1AE5721 (antibody, V domains shown)
VH: B5 VH
VL: DIVMTQSPDSLAVSLGERATINCKSSQSVSISGINLMNWYQQKPGQQPKLLIYHASILASGVPDRFSGSGSGTDFTLTISSLQAEDVAVYYCQQTRESPLTFGQGTRLEIK
notes: Humanized 5E11 IgG; PGLALA Fc implied by the CAR-J assay; also called 5E11_VH1c + 5E11_VL1c
B15: P1AE5726 (antibody, V domains shown)
VH: B5 VH with V2L, S75A
VL: B14 VL with K24R, S25A
notes: Humanized 5E11 IgG; PGLALA Fc implied by the CAR-J assay; also called 5E11_VH1d + 5E11_VL1a
B16: P1AE5727 (antibody, V domains shown)
VH: B5 VH with V2L, S75A
VL: B14 VL
notes: Humanized 5E11 IgG; PGLALA Fc implied by the CAR-J assay; also called 5E11_VH1d + 5E11_VL1c
B17: ET150-5-TCB (bispecific antibody, human IgG1, lambda, L234A L235A)
light 1: QSVLTQPPSASGTPGQRVTISCSGSRSNVGGNYVFWYQQVPGATPKLLIYRSNQRPSGVPDRFAGSKSGSSASLAISGLRSEDEADYYCATWDDSLSGFVFGTGTKVTVLGQPKAAPSVTLFPPSSKKLQANKATLVCLISDFYPGAVTVAWKADSSPVKAGVETTTPSKQSNNKYAASSYLSLTPEQWKSHRSYSCQVTHEGSTVEKTVAPTECS
light 2: EVQLLESGGGLVQPGGSLRLSCAASGFTFSTYAMNWVRQAPGKGLEWVSRIRSKYNNYATYYADSVKGRFTISRDDSKNTLYLQMNSLRAEDTAVYYCVRHGNFGNSYVSWFAYWGQGTLVTVSSASVAAPSVFIFPPSDEQLKSGTASVVCLLNNFYPREAKVQWKVDNALQSGNSQESVTEQDSKDSTYSLSSTLTLSKADYEKHKVYACEVTHQGLSSPVTKSFNRGEC
heavy 1: EVQLVESGGGLVKPGGSLRLSCAASGFTFSDYYMSWIRQAPGKGLEWVSYISSSGSTIYYADSVKGRFTISRDNAKNSLYLQMNSLRAEDTAVYYCARGYGKAYDQWGQGTLVTVSSASTKGPSVFPLAPSSKSTSGGTAALGCLVEDYFPEPVTVSWNSGALTSGVHTFPAVLQSSGLYSLSSVVTVPSSSLGTQTYICNVNHKPSNTKVDEKVEPKSCDKTHTCPPCPAPEAAGGPSVFLFPPKPKDTLMISRTPEVTCVVVDVSHEDPEVKFNWYVDGVEVHNAKTKPREEQYNSTYRVVSVLTVLHQDWLNGKEYKCKVSNKALGAPIEKTISKAKGQPREPQVCTLPPSRDELTKNQVSLSCAVKGFYPSDIAVEWESNGQPENNYKTTPPVLDSDGSFFLVSKLTVDKSRWQQGNVFSCSVMHEALHNHYTQKSLSLSPGK
heavy 2: not shown

Molecular target: T1, human GPRC5D (human, UniProt Q9NZD1 1-345)
T1 construct: also called G protein-coupled receptor class C group 5 member D; hu GPCR5D
T1 sequence (Q9NZD1 whole entry): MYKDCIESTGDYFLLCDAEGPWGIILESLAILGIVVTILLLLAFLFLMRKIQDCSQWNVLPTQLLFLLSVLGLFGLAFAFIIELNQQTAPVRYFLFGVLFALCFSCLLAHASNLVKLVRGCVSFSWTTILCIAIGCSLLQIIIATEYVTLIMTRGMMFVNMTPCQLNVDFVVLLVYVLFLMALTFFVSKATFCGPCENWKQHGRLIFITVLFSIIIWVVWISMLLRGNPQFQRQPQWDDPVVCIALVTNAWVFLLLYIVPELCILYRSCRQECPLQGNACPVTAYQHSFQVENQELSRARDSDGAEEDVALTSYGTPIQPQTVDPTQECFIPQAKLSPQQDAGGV
Assay: cell ELISA, CHO hu GPRC5D (EC/IC50 rel)
Experimental: Stable transfected CHO clones expressing either human GPRCSD or cynomolgus GPRCSD or murine GPRCSD or human GPRCSA were used to analyze the binding of potential lead candidate antibodies as IgGs. In detail, 10⁴ cells (viability≥98%) were seeded into 384 well-microtiter plates (BD Poly D-Lysin, #356662, volume: 25 μl/well) using fresh culture medium. After overnight incubation at 37° C., 25 μl/well dilutions of antibodies were added (15×1:3 dilutions in 1×PBS, assay conc. starts at 30 μg/ml) to the cells for 2 hours at 4° C. After one washing step using 90 μl/well PBST (10×PBS, Roche, #11666789001+0.1% Tween 20), cells were subsequently fixed by the addition of 50 μl/well 0.05% glutaraldehyde (Sigma Cat. No: G5882 in 1×PBS) for 10 min at room temperature (RT). After three additional washing steps using 90 μl/well PBST, secondary antibodies were added for detection: for human antibodies goat anti-human Ig a chain antibody HRP conjugate (Millipore #AP502P) diluted 1:2000 in blocking buffer (1×PBS (Roche #11666789001)+2% BSA (Bovine Serum Albumin Fraction V, fatty acid free, Roche, #10735086001)+0.05% Tween 20) was used (25 μl/well). […] After incubation for 1 h at RT and three additional washing steps using 90 μl/well PBST, 25 μl/well TMB substrate was added (Roche order no. 11835033001) for 10 min and color development to final ODs was determined by measurement at 370 nm/492 nm.
For the characterization of the humanization variants of the VH and VL domains of the GPRC5D binders the ELISA protocol as described above was used (see Example 7). The data are summarized in the table 10 for the humanization variants of 5E11 and in table 11 for the humanization variants of 5F11.

| Binder | EC50 |
| --- | --- |
| B1 | 0.0067 µg/mL and 0.04 nM |
| B2 | 0.006 µg/mL and 0.04 nM |
| B3 | 0.0086 µg/mL and 0.06 nM |
| B4 | 0.0097 µg/mL and 0.06 nM |
| B5 | 0.006 µg/mL and 0.04 nM |
| B6 | 0.0052 µg/mL and 0.03 nM |
| B7 | 0.008 µg/mL and 0.05 nM |
| B8 | 0.0121 µg/mL and 0.08 nM |
| B9 | 0.0131 µg/mL and 0.09 nM |
| B10 | 0.0166 µg/mL and 0.11 nM |
| B11 | 0.0051 µg/mL and 0.03 nM |
| B12 | 0.0053 µg/mL and 0.04 nM |
| B13 | 0.0079 µg/mL and 0.05 nM |
| B14 | 0.0183 µg/mL and 0.12 nM |
| B15 | 0.0076 µg/mL and 0.05 nM |
| B16 | 0.0087 µg/mL and 0.06 nM |

Molecular target: T1, human GPRC5D
Assay: cell-based or functional assay

| Binder | EC50 of anti-GPRC5D-TCB mediated killing, AMO-1 [nM] | EC50 of anti-GPRC5D-TCB mediated killing, L363 [nM] | EC50 of anti-GPRC5D-TCB mediated killing, NCI-H929 [nM] | EC50 of anti-GPRC5D-TCB mediated killing, RPMI-8226 [nM] |
| --- | --- | --- | --- | --- |
| B17 | 0.0835 | 0.768 | 0.833 | 0.797 |

Molecular target: T1, human GPRC5D
Assay: cell-based or functional assay
Remark: another data set of the same source

| Binder | CAR-J2 EC50 [ng/mL] (PGLALA-CAR-J activation, L363 target cells) |
| --- | --- |
| B1 | 1.4 |
| B2 | 5.47 |
| B3 | 3.63 |
| B4 | 1.62 |

Molecular target: T1, human GPRC5D
Assay: cell-based or functional assay
Remark: another data set of the same source

| Binder | EC50 values of CAR-J activation [ng/mL] |
| --- | --- |
| B1 | 1.4 |
| B2 | 5.47 |
| B3 | 3.63 |
| B4 | 1.62 |
| B5 | 3.7 |
| B7 | 3.5 |
| B8 | 105 |
| B13 | 5.6 |

Molecular target: T1, human GPRC5D
Assay: cell-based or functional assay
Remark: another data set of the same source

| Binder | CAR-J2 EC50 [ng/mL] (PGLALA-CAR-J activation, L363 target cells) |
| --- | --- |
| B5 | 3.7 |
| B6 | 2.3 |
| B7 | 3.5 |
| B8 | 105 |
| B9 | 16.1 |
| B10 | 2.8 |
| B11 | 10.9 |
| B12 | 3.6 |
| B13 | 5.6 |
| B14 | 25 |
| B15 | 37.8 |
| B16 | 6.3 |
